{"source": "paper PMC5262380", "about": "“Structural insights into the mechanism of the DEAH-box RNA helicase Prp43”", "key": {"ctPrp43": {"molecular_target": "ctPrp43 (Chaetomium thermophilum? (printed C. …, UniProt G0RY84 1-764))", "sequence (G0RY84 entry or part of it)": "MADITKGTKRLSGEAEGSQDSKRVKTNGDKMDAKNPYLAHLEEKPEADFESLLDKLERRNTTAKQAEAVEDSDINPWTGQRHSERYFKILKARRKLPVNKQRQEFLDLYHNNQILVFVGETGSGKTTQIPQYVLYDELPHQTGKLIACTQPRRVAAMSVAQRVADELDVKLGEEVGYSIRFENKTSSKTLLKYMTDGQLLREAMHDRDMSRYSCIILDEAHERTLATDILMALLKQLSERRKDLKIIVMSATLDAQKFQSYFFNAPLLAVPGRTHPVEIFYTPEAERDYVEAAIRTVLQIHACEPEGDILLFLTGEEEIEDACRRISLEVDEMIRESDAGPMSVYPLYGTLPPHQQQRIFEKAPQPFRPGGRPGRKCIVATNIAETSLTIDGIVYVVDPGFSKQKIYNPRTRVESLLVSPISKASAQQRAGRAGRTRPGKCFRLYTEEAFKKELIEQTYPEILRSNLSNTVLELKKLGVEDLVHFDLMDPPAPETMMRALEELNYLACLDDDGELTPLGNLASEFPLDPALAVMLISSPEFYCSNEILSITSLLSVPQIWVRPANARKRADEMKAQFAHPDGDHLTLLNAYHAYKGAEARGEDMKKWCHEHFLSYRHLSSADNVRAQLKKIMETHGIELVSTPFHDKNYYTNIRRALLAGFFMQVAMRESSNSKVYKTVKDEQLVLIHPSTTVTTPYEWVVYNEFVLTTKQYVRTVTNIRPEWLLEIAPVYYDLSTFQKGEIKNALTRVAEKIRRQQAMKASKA", "assay": "fluorescence anisotropy; AMPPNP (100-fold excess), 3 mM MgCl2; Fluorescence anisotropy: 25 mM Tris pH 7.5, 150 mM KCl, 3 mM MgCl2, 25 C, 0.1 uM RNA, 0.01-50 uM protein, 100-fold excess AMPPNP", "conditions": "protein: recombinant; tags: GST-tag removed; label: 5' 6-carboxyfluorescein; single strand"}, "[1]": {"molecular_target": "ctPrp43-HT (Hook-Turn mutant) (Chaetomium thermophilum? (printed C. …, UniProt G0RY84 1-764, R180G;F181G))", "sequence (G0RY84 entry or part of it R180G;F181G | mutant)": "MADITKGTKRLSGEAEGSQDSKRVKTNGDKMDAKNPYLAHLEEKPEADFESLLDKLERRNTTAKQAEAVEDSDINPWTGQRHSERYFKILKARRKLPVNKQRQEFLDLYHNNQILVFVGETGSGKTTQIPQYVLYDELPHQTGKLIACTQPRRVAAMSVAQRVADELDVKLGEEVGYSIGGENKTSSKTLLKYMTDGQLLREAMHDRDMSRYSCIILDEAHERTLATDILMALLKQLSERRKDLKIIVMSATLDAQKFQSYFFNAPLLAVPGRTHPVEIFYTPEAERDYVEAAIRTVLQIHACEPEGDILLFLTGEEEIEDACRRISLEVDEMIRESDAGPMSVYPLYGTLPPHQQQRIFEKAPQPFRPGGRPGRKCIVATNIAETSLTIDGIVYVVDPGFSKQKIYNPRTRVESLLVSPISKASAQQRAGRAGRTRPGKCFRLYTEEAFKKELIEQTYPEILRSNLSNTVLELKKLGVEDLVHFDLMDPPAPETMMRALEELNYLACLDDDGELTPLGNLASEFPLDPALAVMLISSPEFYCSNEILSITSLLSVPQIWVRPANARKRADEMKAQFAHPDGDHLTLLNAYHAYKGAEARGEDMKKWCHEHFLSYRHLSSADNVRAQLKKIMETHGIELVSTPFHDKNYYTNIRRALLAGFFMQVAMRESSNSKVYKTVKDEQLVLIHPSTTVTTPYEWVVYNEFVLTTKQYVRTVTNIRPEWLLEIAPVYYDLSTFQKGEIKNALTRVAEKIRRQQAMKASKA", "assay": "fluorescence anisotropy; AMPPNP (100-fold excess), 3 mM MgCl2; Fluorescence anisotropy: 25 mM Tris pH 7.5, 150 mM KCl, 3 mM MgCl2, 25 C, 0.1 uM RNA, 0.01-50 uM protein, 100-fold excess AMPPNP", "conditions": "protein: recombinant; tags: GST-tag removed; label: 5' 6-carboxyfluorescein; single strand"}}}
{"binder": "UUUUUUUUUUUUUUUU (ssRNA)", "note": "[5'-6FAM-U16-RNA]", "values": [{"measurement": "Kd", "setting": "ctPrp43", "value": "4980 ± 570", "unit": "nM"}, {"measurement": "Kd", "setting": "[1]", "value": "840 ± 50", "unit": "nM"}]}
